Experimental data as given in patent US20230183354A1 (IMMIOS HOLDING B V, published 2023).

T1: murine CD103 (mouse, UniProt Q60677 20-1167)
T1 construct: whole, on cells; also called murine CD103+ T cells; mouse CD103
T1 sequence (looked up): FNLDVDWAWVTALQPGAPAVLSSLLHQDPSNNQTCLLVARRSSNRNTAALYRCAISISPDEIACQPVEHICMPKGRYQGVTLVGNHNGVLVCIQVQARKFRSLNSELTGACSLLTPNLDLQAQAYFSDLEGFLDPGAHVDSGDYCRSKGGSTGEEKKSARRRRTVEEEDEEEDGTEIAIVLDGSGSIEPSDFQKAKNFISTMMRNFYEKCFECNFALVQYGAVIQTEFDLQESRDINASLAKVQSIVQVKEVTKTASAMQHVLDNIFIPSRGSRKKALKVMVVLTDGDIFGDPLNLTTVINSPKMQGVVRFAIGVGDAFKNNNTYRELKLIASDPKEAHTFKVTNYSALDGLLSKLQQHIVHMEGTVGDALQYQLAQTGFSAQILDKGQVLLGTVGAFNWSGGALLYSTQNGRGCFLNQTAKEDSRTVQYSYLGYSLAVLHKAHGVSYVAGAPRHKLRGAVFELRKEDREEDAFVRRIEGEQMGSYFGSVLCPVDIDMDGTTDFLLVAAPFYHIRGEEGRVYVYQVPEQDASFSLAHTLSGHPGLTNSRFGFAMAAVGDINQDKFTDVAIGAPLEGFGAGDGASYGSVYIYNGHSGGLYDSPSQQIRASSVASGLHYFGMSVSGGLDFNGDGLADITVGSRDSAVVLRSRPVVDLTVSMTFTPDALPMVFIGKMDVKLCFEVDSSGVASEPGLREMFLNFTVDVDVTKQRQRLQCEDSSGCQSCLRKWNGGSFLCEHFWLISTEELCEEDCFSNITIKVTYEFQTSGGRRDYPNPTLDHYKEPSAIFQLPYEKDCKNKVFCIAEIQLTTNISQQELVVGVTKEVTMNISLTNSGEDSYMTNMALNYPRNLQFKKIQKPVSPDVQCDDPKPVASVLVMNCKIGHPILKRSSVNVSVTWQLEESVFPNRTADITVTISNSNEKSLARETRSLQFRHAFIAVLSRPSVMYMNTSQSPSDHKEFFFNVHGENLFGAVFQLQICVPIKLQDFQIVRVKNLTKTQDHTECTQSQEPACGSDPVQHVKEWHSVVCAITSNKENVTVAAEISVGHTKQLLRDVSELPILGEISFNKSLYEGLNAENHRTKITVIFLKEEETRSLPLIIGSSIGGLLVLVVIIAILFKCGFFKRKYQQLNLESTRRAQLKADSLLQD


Legend:
[1] = biological target: T2, human CD103 (integrin Alpha-E) / human integrin Beta-7 heterodimer on cells (human, UniProt P38570 19-1179; P26010 20-798); assay: flow cytometry competition on CD103+CD8+ T cells; pre-incubation with unlabeled 05A; table n=1
T2 construct: the assay field tells which cells; also called hCD103/hBeta7; CHO.K1-hCD103/hBeta7
T2 sequence (P38570 19-1179 limits assumed, chain 1 of 2): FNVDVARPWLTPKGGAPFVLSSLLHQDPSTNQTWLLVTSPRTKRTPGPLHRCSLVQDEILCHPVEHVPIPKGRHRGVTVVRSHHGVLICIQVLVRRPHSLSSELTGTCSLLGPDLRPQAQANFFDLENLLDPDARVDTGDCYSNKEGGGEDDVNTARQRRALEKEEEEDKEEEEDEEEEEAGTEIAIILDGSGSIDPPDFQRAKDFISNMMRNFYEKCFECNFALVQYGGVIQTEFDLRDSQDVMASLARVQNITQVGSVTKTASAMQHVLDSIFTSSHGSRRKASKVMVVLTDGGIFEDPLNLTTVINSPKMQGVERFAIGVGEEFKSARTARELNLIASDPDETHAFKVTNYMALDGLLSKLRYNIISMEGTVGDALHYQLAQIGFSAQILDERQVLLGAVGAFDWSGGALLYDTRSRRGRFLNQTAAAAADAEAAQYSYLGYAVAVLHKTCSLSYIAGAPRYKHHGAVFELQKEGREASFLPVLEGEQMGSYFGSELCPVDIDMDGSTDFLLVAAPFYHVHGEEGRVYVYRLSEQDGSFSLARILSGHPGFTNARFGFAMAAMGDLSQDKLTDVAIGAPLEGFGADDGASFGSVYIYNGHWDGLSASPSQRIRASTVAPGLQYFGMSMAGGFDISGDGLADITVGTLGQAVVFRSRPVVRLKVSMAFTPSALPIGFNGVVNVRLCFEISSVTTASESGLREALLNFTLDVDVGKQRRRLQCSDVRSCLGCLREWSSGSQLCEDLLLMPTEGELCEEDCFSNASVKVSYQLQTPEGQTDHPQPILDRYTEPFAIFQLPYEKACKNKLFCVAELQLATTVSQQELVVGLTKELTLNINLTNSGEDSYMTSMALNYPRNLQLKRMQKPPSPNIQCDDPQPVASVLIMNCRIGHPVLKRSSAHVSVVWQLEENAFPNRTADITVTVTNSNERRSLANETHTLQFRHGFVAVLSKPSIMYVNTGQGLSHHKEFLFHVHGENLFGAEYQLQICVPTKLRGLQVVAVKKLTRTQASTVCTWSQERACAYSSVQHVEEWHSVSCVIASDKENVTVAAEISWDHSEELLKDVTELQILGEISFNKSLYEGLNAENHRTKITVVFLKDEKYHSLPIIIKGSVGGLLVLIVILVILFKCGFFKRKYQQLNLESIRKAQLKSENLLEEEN
T2 sequence (P26010 20-798 limits assumed, chain 2 of 2): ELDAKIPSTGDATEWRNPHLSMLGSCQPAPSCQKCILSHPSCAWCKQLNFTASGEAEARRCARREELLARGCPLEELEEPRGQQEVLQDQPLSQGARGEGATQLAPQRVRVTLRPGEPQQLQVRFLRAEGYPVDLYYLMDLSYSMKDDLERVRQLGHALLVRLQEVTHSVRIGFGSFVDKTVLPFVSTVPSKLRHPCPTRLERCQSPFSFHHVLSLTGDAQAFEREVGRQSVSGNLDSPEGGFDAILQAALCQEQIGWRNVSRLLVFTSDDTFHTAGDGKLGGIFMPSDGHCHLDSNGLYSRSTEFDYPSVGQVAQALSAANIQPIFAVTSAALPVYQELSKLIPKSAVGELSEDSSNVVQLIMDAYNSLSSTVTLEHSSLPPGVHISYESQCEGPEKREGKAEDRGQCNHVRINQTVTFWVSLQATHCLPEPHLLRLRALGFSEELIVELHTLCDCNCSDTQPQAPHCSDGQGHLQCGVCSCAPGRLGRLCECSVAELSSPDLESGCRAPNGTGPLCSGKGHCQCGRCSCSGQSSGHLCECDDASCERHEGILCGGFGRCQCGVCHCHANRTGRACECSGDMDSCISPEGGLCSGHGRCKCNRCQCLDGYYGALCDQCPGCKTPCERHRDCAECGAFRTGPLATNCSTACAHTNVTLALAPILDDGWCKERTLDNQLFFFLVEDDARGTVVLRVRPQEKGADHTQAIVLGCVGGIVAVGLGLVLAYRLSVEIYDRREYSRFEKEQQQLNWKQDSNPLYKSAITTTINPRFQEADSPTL
Procedure: (§1) Percentage binding of fluorescently labeled mAbs was determined using flow cytometry. Maximum binding was set at 100%.
(§2) Percentage binding of fluorescently labeled mAbs was determined using flow cytometry. Maximum binding was set at 100%

[2] = biological target: T2, human CD103 (integrin Alpha-E) / human …; assay: flow cytometry competition on CD103+CD8+ T cells; pre-incubation with unlabeled 07A; table n=2
Procedure: as §1, §2

[3] = biological target: T2, human CD103 (integrin Alpha-E) / human …; assay: flow cytometry competition on CD103+CD8+ T cells; pre-incubation with unlabeled BERACT; table n=2
Procedure: as §1, §2

[4] = biological target: T2, human CD103 (integrin Alpha-E) / human …; assay: cell-based ELISA on CHO.K1-hCD103/hBeta7 cells, relative absorbance, upper panel
Procedure: (§3) Wells were washed with PBS and incubated with Rabbit anti-Mouse/IgG-HRP (1:4000, Dako) or Fab specific Goat anti-Human/IgG-HRP (1:4000; Sigma Aldrich) for 1 h at 37° C. Next, wells were washed with PBS and TMB substrate (KPL) was added. The color reaction was stopped by adding 1M HCl solution and the absorbance was measured by a microplate reader (Thermo Scientific).

[5] = biological target: T3, recombinant hCD103/hBeta7 Fc-protein (Acro-Biosystems) (human, UniProt P38570 19-1124; P26010 20-723, limits assumed); assay: ELISA on coated recombinant human CD103/beta7 Fc-protein, OD450-620, lower right panel titled rhCD103/beta7
T3 construct: Bought protein with no catalog number and no construct limits printed; also called recombinant human CD103/Beta7; recombinant hCD103/beta7; not shown: fusion part of the bought 'Fc-protein'
T3 sequence (P38570 19-1124 limits assumed, chain 1 of 2): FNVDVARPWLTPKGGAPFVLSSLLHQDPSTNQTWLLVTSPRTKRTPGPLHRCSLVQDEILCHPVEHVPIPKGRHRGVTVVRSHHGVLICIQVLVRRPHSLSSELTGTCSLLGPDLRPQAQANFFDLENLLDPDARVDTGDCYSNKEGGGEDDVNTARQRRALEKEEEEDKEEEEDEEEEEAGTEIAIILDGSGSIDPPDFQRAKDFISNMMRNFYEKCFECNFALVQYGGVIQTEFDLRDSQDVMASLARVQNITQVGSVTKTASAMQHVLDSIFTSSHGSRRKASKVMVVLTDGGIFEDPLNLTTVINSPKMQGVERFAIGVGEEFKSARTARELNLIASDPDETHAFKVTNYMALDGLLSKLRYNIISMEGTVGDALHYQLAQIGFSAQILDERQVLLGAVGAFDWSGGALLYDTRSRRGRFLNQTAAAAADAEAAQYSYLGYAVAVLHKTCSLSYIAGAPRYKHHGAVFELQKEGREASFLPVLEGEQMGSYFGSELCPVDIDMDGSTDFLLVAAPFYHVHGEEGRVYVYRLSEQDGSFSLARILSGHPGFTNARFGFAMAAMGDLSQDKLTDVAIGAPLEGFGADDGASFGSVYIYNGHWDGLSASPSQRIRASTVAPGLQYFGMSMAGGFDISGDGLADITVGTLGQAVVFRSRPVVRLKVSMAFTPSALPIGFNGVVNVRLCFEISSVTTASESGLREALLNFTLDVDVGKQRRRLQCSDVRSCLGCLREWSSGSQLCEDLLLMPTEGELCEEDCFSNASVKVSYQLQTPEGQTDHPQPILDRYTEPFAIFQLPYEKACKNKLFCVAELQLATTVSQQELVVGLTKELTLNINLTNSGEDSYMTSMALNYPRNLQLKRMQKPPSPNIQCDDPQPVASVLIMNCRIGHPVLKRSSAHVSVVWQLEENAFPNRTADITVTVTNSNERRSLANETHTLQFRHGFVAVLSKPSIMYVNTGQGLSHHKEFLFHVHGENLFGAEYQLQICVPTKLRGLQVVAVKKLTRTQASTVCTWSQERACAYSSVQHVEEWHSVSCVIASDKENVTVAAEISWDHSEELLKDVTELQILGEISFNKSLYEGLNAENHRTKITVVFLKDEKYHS
T3 sequence (P26010 20-723 limits assumed, chain 2 of 2): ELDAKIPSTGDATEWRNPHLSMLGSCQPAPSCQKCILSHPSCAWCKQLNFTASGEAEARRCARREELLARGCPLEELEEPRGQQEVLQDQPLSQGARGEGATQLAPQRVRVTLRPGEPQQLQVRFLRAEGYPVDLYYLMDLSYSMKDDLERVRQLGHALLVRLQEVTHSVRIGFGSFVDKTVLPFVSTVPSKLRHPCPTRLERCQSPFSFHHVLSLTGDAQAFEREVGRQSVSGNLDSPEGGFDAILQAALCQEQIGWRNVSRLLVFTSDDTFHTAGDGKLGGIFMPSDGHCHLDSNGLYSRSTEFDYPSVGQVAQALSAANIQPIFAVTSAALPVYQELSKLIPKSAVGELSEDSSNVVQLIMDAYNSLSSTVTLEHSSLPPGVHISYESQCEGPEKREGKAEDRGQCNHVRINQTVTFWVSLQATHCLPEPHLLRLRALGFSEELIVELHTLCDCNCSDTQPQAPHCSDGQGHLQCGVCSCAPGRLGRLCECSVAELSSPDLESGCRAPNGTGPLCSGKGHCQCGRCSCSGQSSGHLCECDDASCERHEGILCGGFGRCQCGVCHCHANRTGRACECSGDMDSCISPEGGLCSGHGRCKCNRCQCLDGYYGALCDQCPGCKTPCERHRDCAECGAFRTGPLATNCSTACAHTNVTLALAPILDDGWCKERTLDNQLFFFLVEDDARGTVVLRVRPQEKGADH
Procedure: Protein coated 96-well plates were blocked in protein-free blocking buffer (Pierce) for 1.5 hour at 37° C. Plates were washed and incubated for 1 hour at RT with mAb/Fab in 0.1% Tween-20 in PBS. Next, plates were washed with PBS-T and incubated for 1 hour at RT with goat-anti-mouse IgG-HRP conjugate (Southern Biotech) for mAbs, and goat-anti-human Fab-HRP conjugate (Jackson Immuno Research) for the Fab fragments in 0.1% Tween-20 in PBS. […] Reactions were stopped with 0.5 M H2SO4 and absorbances were read at 450 and 610 nm.

[6] = biological target: T2, human CD103 (integrin Alpha-E) / human …; assay: cell-based ELISA on CHO.K1-hCD103/hBeta7 cells, Df-conjugated mAb, relative absorbance, upper panel
Procedure: as §3

[7] = biological target: T2, human CD103 (integrin Alpha-E) / human …; assay: flow cytometry competition on CD103+CD8+ T cells; pre-incubation with unlabeled 06A; table n=2
Procedure: as §1, §2

[8] = biological target: T1, murine CD103; assay: flow cytometry on mouse spleen and thymus cells
Procedure: Additional aliquots were stained with relevant isotype controls or as fluorescence minus one controls (“FMO” controls are cells stained with all the fluorophores minus one fluorophore; the relevant isotype controls contain either a directly labeled unspecific isotype antibody or an unspecific isotype antibody combined with secondary detection reagent). Percentage binding of fluorescently labeled mAbs was determined using flow cytometry. Maximum binding was set at 100%. […] Data analysis was performed with FlowJo v10 (Tree Star) and surface receptor levels were expressed as mean fluorescent intensity (MFI).

Binder	% binding of the fluorescently labeled mAb (IgG pre-incubation = 100) [1] [%]	% binding of the fluorescently labeled mAb (IgG pre-incubation = 100) [2] [%]	% binding of the fluorescently labeled mAb (IgG pre-incubation = 100) [3] [%]	EC50 (read off the curve) [4] [mg/L]	EC50 (read off the curve) [5] [mg/L]	EC50 (read off the curve) [6] [mg/L]	% binding of the fluorescently labeled mAb (IgG pre-incubation = 100) [7] [%]	binding result [8]
hCD103.05A (antibody, mouse IgG1, V domains shown, Also tested labelled with AF647, conjugated with Df and labelled with 89Zr; these are written under this molecule; also called clone 05A; hCD103.05 mAb) VH: EVQLQQSGPELEKPGASAKISCKASGYSFTGYNMNWVKQSNGKSLEWIGNIDPYYGGTSYNQKFKGKATLTVDKSSSTAYMQLKSLTSEDSAVYYCARSFYGYDAGSPYNYAMDYWGQGTPVTVSP VL: DIVMTQSHKFMSTSVGDRVSITCKASQDVGTFVAWYQQKPGQSPKLLIYWASTRHTGVPDRFTGSGSGTDFTLTISNVQSEDLADYFCHQYSSYPYTFGGGTQLEIK	13.1	56.9	4.9	~0.04	~0.003	~0.04	87.4	no binding
hCD103.01A (antibody, V domains shown, Also tested labelled with AF647, conjugated with Df and labelled with 89Zr; these are written under this molecule; also called clone 01A; hCD103.01 mAb) VH: EVQLQESGPSLVKPSQTLSLTCSVTGDSITSGYWNWIRKFPGNKLEYMGYITYSGSTYYNPSLKSRISITRDTSKNQYYLQLNSVTTEDTATYYCTRHYYGSDAMDYWGQGTSVTVSS VL: DIVMTQSHKFMSTSVGDRVSITCKASQDVSIAVAWYQQRPGQSPKLLIYSASYRYTGVPDRFTGSGSGTDFTFTISSVQAEDLAVYYCQQHYSTPWTFGGGTKLEIK	71.8	26.6	4	~0.04	~0.003	~0.04	90.9	no binding

Second part, the binder after the results:

% binding of the fluorescently labeled mAb (IgG pre-incubation = 100) [1] [%]	% binding of the fluorescently labeled mAb (IgG pre-incubation = 100) [2] [%]	% binding of the fluorescently labeled mAb (IgG pre-incubation = 100) [3] [%]	EC50 (read off the curve) [4] [mg/L]	EC50 (read off the curve) [5] [mg/L]	EC50 (read off the curve) [6] [mg/L]	% binding of the fluorescently labeled mAb (IgG pre-incubation = 100) [7] [%]	binding result [8]	Binder
7.9	29.8	1				81.6	no binding	hCD103.07A (antibody, mouse IgG1, V domains shown, also called clone 07A) VH: EVQLQESGPSLVKPSQTLSLTCSVTGDSITSGYWNWIRKFPGNKLEYMGYITYSGSTYYNPSLKSRISITRDTSKNQYYLQLNSVTTEDTATYYCARNYYGSSSMDYWGQGTSVTVSS VL: DIVMTQSQKFMSTSVADRVSVTCKASQNVGSDVAWYQQKPGQSPKSLIYSASYRYSGVPDRFTGSGSGTDFTLTISNVQSEDLAEYFCQQYNSYPSTFGGGTKLEIK
101	97	109				18.9	no binding	hCD103.06A (antibody, mouse IgG1, V domains shown, also called clone 06A; hCD103.06 mAb) VH: QVQLQQPGSELVRPGASVKLSCKASGYTFTSYWMHWVKQRHGQGLEWIGNIYPGSGSTNYDEKFKSKGTLTVDTSSSTAYMHLSSLTSEDSAVYYCTRGVYDNPYYFDYWGQGTTLTVSS VL: DIQMTQSSSNLSVSLGGRVTITCKASDHINNWLAWYQQKPGNAPRVLISGATSLETGVPSRFSGSGSGKDYTLSITSLQTEDVATYYCQQYWSIPLTFGAGTKLELK
